Tests used:
[1] = target: the molecule itself; experiment: 15N NMR relaxation (rotational correlation time); A13DBD bound to 11-mer DNA duplex, about 0.5 mM, 310 K, 20 mM NaPO4, 5 mM MgCl2, pH 6.0; R2/R1 gives the rotational correlation time and a spherical mass
[2] = target: the molecule itself; experiment: SEC-MALS; A13DBD bound to 11-mer DNA duplex; Superdex 75 HR 10/30 at 4°C, calibrated with mass standards, in line with MALS and refractive index; mass as a function of protein concentration; dimer to monomers
[3] = target: the molecule itself; experiment: not stated; K343E mutant of A13DBD; the method is not named for this mutant (the neighbouring mutants were tested by SEC/MALS of the DNA complex)

B1: HOXA13 DNA binding domain (A13DBD), wild type (domain or fragment)
chain: not shown
notes: numbers count on: GenBank AAB03322.1; The introduction gives residues 314-386 for A13DBD, the methods G320-S386; Cloned in pET-15b; also called HOXA13 homeodomain; WT; source: E. coli BL21(DE3), purified (His-tag purification, thrombin cleavage, Superdex-75)
- stoichiometry N [1]: 2
- Kd [2]: < 500 nM

B2: HOXA13 DNA binding domain (A13DBD) F344A (domain or fragment)
chain: not shown
notes: numbers count on: GenBank AAB03322.1; Made by QuikChange mutagenesis of pHisA13DBD; The luciferase assay used the same mutation in full-length HOXA13 (pCAGGS-HOXA13) in NG108-15 cells; source: E. coli BL21(DE3), purified (His-tag purification, thrombin cleavage, Superdex-75)
- fold weakening of the dimerization affinity against wild type [2]: ≥ 10 fold

B3: HOXA13 DNA binding domain (A13DBD) K343E (domain or fragment)
chain: not shown
notes: numbers count on: GenBank AAB03322.1; source: E. coli BL21(DE3), purified (His-tag purification, thrombin cleavage, Superdex-75)
- fold lowering of the dimerization affinity against wild type [3]: ~5 fold
